Literature values as cited in article PMC3727217.

Biological target: His87 (UniProt position 88, YGATGHPGIIP)
Assay: NMR
Settings: not stated (context implies ligand-free FKBP12; ref 47 studied both the absence and presence of ligands)

For “FK506-binding protein FKBP12 (peptidyl-prolyl cis-trans isomerase FKBP1A) (Homo sapiens)”, the pKa is given as 5.92.
